Assay results taken from patent US20200277373A1 (DENALI THERAPEUTICS, published 2020).
Substitutions are numbered along the chain they refer to.

T1: Human TREM2 protein, on cells (human, UniProt Q9NZC2 19-230)
T1 sequence: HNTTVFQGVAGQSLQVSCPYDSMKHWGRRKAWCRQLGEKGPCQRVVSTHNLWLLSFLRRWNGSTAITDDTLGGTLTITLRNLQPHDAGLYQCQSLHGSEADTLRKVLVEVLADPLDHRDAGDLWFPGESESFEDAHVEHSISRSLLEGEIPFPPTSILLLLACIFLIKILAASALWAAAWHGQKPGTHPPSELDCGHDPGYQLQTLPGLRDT

T2: Mouse TREM2, on cells (mouse, UniProt Q99NH8 19-227)
T2 construct: whole, on cells; also called mouse TREM2 HEK
T2 sequence (looked up): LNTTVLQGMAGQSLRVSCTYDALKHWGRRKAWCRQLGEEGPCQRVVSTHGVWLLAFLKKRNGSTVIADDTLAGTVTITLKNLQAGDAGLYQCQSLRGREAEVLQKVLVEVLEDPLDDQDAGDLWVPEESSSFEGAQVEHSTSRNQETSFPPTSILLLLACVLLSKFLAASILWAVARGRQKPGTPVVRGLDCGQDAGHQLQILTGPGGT

T3: His-tagged TREM2 ECD (ecto domain residues 19-172 of human TREM2, C-terminal 6X-His tag) (human, UniProt Q9NZC2 19-172)
T3 construct: Made in Expi293F cells; the mouse Ig kappa secretion signal is not part of the mature protein; Biotinylated for the Octet binning; also called TREM2-His; TREM2-His protein
T3 sequence: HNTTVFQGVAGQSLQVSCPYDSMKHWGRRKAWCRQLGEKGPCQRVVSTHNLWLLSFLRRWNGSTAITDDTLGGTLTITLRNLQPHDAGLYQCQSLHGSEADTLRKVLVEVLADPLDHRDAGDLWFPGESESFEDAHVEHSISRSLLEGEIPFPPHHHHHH

B1: 42E8.H1 (antibody, V domains shown)
VH: DVQLQESGPGLVKPSQSLSLTCTVTGYSITSDYAWNWIRQFPGNKLEWMGYINYSGRTIYNPSLKSRISITRDTSKNHFFLQLISVTTEDTATYYCARWNGNYGFAYWGQGTLVTVSA
VL: DVVMTQNPLSLPVSLGDQASISCRSSQSLVHINGNTYLHWYLQKPGQSPKLLIYKVSNRFSGVPDRFSGSGSGTDFTLKISRVEAEDLGVYFCSQTTHALFTFGSGTKLEIK
notes: Mouse hybridoma antibody, Ig2a, k; also called RS8.42E8.H1
B2: 49H11.B1 (antibody, IgG3, V domains shown)
VH: B1 VH with K45R, N53S, Y54F, R57S, I59S, H78Q, I84N
VL: B1 VL with N7T, T96S, A99V, L100T
notes: Mouse hybridoma antibody, IgG3, k; also called RS8.49H11.B1
B3: 7B10.A2 (antibody, V domains shown)
VH: EVQLQQSGPELVKPGASVKMSCKASGYTFTDYNMHWVKQSHGKSLEWIGYINPNNGGTTYNQKFKGKATLTVNKSSSTAYMELRSLTSEDSAVYYCATYNNHYFDSWGQGTTLTVSS
VL: DIQMTQTTSSLSASLGDRVTISCSASQGISNYLNWYQQKPDGTVKLLIYYTSNLHSGVPSRFSGSGSGTDYSLTISNLEPEDIATYYCQQYSNLPYTFGGGTKLEIK
B4: 57D7.A1 (antibody, V domains shown)
VH: QVQLKESGPGLVAPSQSLSITCTVSGFSLSRYSVYWVRQPPGKGLEWLGMIWGGGNTDYNSALKSRLSISKDNSKSQVFLKMNSLQTDDSAMYYCVQYGGMDYWGQGTSVTVSS
VL: DVLMTQTPLSLPVSLGDQASISCRSSQSIVHSNGNTYLEWYLQKPGQSPKLLIYKVSNRFSGVPDRFSGSGSGTDFTLKISRVEAEDLGVYYCFQGSHVPYTFGGGTKLEIK
notes: Mouse hybridoma antibody, Ig2a, k; also called RS8.57D7.A1
B5: 26E2.A3 (antibody, V domains shown)
VH: QVHLQQSGSELRSPGSSVKLSCKDFDSEVFPISYMSWIRQKPGHGFEWIGDILPSIGGRIYGVKFEDRATLDADTVSNTAYLELNSLTSEDSAIYYCARKDYGSLAYWGQGTLVTVSA
VL: B1 VL with N7T, H39Q, Y41F, D75A, T96S, A99V, L100P, F101Y, S105G
notes: Mouse hybridoma antibody, Ig2a, k; also called RS8.26E2.A3
B6: 26D2.D1 (antibody, IgG2a, V domains shown)
VH: EVQLQQSGPELVKPGASVKMSCKASGYTFTSYVMHWVKQKPGQGLEWIGYINPYTDGTKYNEKFKGKATLTSDKSSSTAYMDLSSLTSEDSAVYYCARGEVRRYALDYWGQGTSVTVSS
VL: DIQMTQSSSSFSVSLGDRVTITCKASEDIYNRLAWYQQKPGNAPRLLISGATSLETGVPSRFSGSGSGKDYTLSITSLQTEDVATYYCQQYWSTPWTFGGGTKLEIK
notes: Mouse hybridoma antibody, IgG2a, k; also called RS8.26D2.D1
B7: 21D11 (antibody, IgG2a, V domains shown)
VH: QVQLQQSGAELARPGASVKLSCKASGYTFTSYWIQWVKQRPGQGLEWIGTIYPGDGDARYTQKFKGKATLTADKSSSTTYMQLNSLASEDSAVYYCARNGITTAGYYAMDYWGQGTSVTVSS
VL: DIQMTQSPASLSVSVGETVTITCRASENIYSNLAWYQQKQGRSPQLLVYAATNLADGVPSRFSGSGSGTQYSLKINSLQSEDFGYYYCQHFWGTPYTFGGGTKVEIK
notes: Mouse hybridoma antibody, IgG2a, k; also called 21D11.B1; RS8.21D11.B1
B8: 40H3.A4 (antibody, V domains shown)
VH: EVQLQQSGAEVVKPGASVKLSCTASGFNIKDTYMHWVKQRPEQGLEWIGRIDPANGNTKYDPKFQGKATITADTSSNTAYLQLSSLTSEDTAVYYCATLFAYWGQGTLVTVSA
VL: DIVMTQAAFSNPVTLGTSASISCRSSKSLLHSNGITYLYWYLQKPGQSPQLLIYQMSNLASGVPDRFSSSGSGIDFTLRINRVEAEDVGVYYCAQNLELPTFGSGTKLEIK
notes: Mouse hybridoma antibody, isotype N.D; also called RS8.40H3.A4
B9: 51D4 (antibody, IgG2a, V domains shown)
VH: QVHLQQSGPEVVRPGVSVKISCKGSGYTFTDYGMHWVKQSHAKSLEWIGVISTYNGNTSYNQKYKGKATVTVDKPSSTAYMELVRLTSEDSAIYYCARDFGYVPFDYWGQGTTLTVSS
VL: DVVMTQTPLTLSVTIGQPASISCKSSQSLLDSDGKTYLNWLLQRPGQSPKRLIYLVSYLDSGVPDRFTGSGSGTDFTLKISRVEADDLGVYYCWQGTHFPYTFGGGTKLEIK
notes: Mouse hybridoma antibody, IgG2a, k; also called 51D4.A1; RS8.51D4.A1
B10: 3D3.A1 (antibody, V domains shown)
VH: EVQLQQSGPELVKPGASVKISCKTSGYTLSEYTMHWVIQSHGKSLEWIGGVIPNSGGTSYNQKFRDKASLTVDKSSSTAYLELRSLTSEDSAVYYCARGDDSYRRGYALDYWGQGTSVTVSS
VL: DIVMSQSPSSLAVSVGEKVTMSCKSSQSLLYSSNQKSYLAWYQQKPGQSPKLLIYWASTRESGVPDRFRGSGSGTDFTLTISSVKAEDLAVYYCQQYFSYPPTFGGGTKLEIK
notes: Mouse hybridoma antibody, Ig2a, k; also called RS8.3D3.A1
B11: 21D4.D1 (antibody, V domains shown)
VH: QVQLQQSGADLLRPGVSVKISCKGSGYTFTDHAMHWVKQSHAESLEWIGVISTYSGDTGYNQKFKGKATMTVDKSSSTAYLELARLTSEDSAIYYCAREGHYDDAMDYWGQGTSVTVSS
VL: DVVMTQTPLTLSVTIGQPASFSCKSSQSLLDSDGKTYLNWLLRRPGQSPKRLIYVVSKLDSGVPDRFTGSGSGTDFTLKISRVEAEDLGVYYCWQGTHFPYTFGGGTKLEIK
notes: Mouse hybridoma antibody, Ig2a, k; also called RS8.21D4.D1

Key:
[1] = molecular target: T1, Human TREM2 protein, on cells; assay: cell-based or functional assay
Mouse TREM2, on cells [2] = molecular target: T2, Mouse TREM2, on cells; assay: Table 5, cell binding: Mouse TREM2 HEK
[3] = molecular target: T3, His-tagged TREM2 ECD (ecto domain …); assay: Table 1 Kd; Biacore, TREM2-His analyte (presumed)
Procedure: Anti-murine Fc antibody (obtained from GE Healthcare) was immobilized on the surface of a CM5 chip (obtained from GE Healthcare) through amine-coupling to reach about 6,000 to 8,000 response units (RU). The surface was activated by injection of a mixture of 1-ethyl-3-(3-dimethylaminopropyl)-carbodiimide (EDC) and N-hydroxysuccinimide (NHS), both obtained from GE Healthcare, for 7 minutes. Anti-murine Fc antibody was diluted in sodium acetate (pH 5.0) at 25 μg/mL and injected for 10 minutes at a flow rate of 5 μL/minute, followed by injection of ethanolamine (obtained from GE Healthcare) for 7 minutes.
Purified anti-TREM2 hybridoma (20 μg/mL) was captured to reach 1000-1500 RU. A range of serially-diluted TREM2-His protein (e.g., 3.4 nM to 300 nM) was injected at a flow rate of 30 μL/minute, using either single-cycle kinetics methods. Sensorgrams were fitted using a 1:1 Langmuir model to estimate kₒₙ and koff.

Mouse TREM2, on cells [4] = molecular target: T2, Mouse TREM2, on cells; assay: flow cytometry, 293F cells overexpressing mouse TREM2
Procedure: (§1) After labeling, cells were washed twice with 1×PBS. […] Mixed cell lines were seeded at 300,000 cells per well in a 96-well round-bottom and incubated 20 minutes at room temperature. After incubation, cells were centrifuged and test anti-TREM2 antibodies were added, then incubated for 45 minutes on ice. After incubation, cells were centrifuged and washed with FACS buffer three times.
(§2) The data in Table 2 is presented as fold over binding (FOB).

[5] = molecular target: T1, Human TREM2 protein, on cells; assay: flow cytometry, HEK293 cells overexpressing human TREM2
Procedure: as §1, §2

[6] = molecular target: T1, Human TREM2 protein, on cells; assay: cell-based or functional assay; remark: listed apart in the source
[7] = molecular target: T3, His-tagged TREM2 ECD (ecto domain …); assay: Biacore T200, antibody captured, antigen injected, 1:1 model
Procedure: To measure TfR binding, anti-human-Fab was immobilized on a CM5 chip, and the TREM2/TfR-binding protein was captured. Full-length human TfR or human TfR apical domain at serial dilution (e.g., concentrations of 1-1000 nM) was flowed over the chip (180 second association time) and then allowed to dissociate. Fitting was performed using a 1:1 binding model. To measure TREM2 binding, anti-human-Fc antibody was immobilized on a CM5 chip, and the TREM2/TfR-binding protein was captured. A range of concentrations of recombinant TREM2-His protein were flowed over the chip, and allowed to associate and dissociate. The resulting sensograms were fitted using a 1:1 Langmuir model to estimate kₒₙ and koff (FIG. 10).
Biacore Series S CM5 sensor chips were immobilized with a mixture of two monoclonal mouse anti-Fab antibodies (Human Fab capture kit from GE Healthcare). Serial 3-fold dilutions of each antigen were injected at a flow rate of 30 μL/min. The binding of the antigens to captured antibody was monitored for 30 to 180 seconds and then their dissociation was monitored for 30-300 seconds in HBS-EP+running buffer (GE, # BR100669). Binding response was corrected by subtracting the RU from a blank flow cell. A 1:1 Languir model of simultaneous fitting of kₒₙ and koff was used for kinetics analysis.

Binder | pSyk FOB (30 nM Ab) [1] | binding result (Mouse TREM2, on cells [2]) | Kd [3] | FOB (fold over binding) (Mouse TREM2, on cells [4]) | FOB (fold over binding) [5] | pSyk (nM), EC50 [6] | Kd [7] | koff [7] | kon [7]
B1 | 7.17 fold over background | no binding | 17 nM | 3.5 fold | 10.6 fold | – | – | – | –
B2 | 11.6 fold over background | no binding | 63.4 nM | 1.2 fold | 7 fold | 26.5 nM | – | – | –
B3 | 6.89 fold over background | – | – | – | – | – | – | – | –
B4 | 5.02 fold over background | no binding | 2.41 nM | 1.7 fold | 11.5 fold | – | – | – | –
B5 | 4.67 fold over background | no binding | 12.8 nM | 1.5 fold | 10.3 fold | – | – | – | –
B6 | 1.73 fold over background | no binding | 15 nM | 2.8 fold | 4.9 fold | – | – | – | –
B7 | 1.68 fold over background | no binding | 0.525 nM | 1.5 fold | 8.4 fold | – | – | – | –
B8 | 1.23 fold over background | no binding | 0.898 nM | 0.8 fold | 1 fold | – | – | – | –
B9 | 1.12 fold over background | no binding | 2.67 nM | 1.3 fold | 7.6 fold | – | – | – | –
B10 | 10.3 fold over background | – | 7.43 nM | 8.4 fold | 11.7 fold | – | 40 nM | 0.019 s⁻¹ | 480000 M⁻¹ s⁻¹
B11 | – | no binding | 1.82 nM | 4 fold | 12.3 fold | – | – | – | –
